# B1: OhrR: redox-regulating protein, organic hydroperoxide regulator, cloned in B. subtilis strain, SEQ ID NO: 3, homodimer, 17 kD (protein, listed as Bacillus subtilis)
# chain: MENKFDHMKLENQLCFLLYASSREMTKQYKPLLDKLNITYPQYLALLLLWEHETLTVKKMGEQLYLDSGTLTPMLKRMEQQGLITRKRSEEDERSVLISLTEDGALLKEKAVDIPGTILGLSKQSGEDLKQLKSALYTLLETLHQKN
# modifications: homodimer
# Experiments:
# [1] = tested on: FAM-bound double strand (ds) DNA [SEQ ID NOs: 1 and 2]; assay: OhrR and target DNA binding by polyacrylamide gel electrophoresis; settings: dsDNA 200 nM, room temperature 30 minutes, 7% polyacrylamide gel
# Procedure: Fluorescent probe (FAM)-bound double strand (ds) DNA (200 nM) [SEQ ID NOs: 1 and 2] and OhrR at concentrations shown in FIG. 3 were mixed and reacted at room temperature for 30 minutes, and then a dsDNA band was detected using a fluorescence spectrometer (KIF-300, Korea Lab Tech, Korea) through electrophoresis (25 mA, 30 min) using a polyacrylamide gel (7%). It can be seen that the fluorescent band of dsDNA shifted upward from an OhrR concentration of about 1.6 μM (concentration about 8 fold higher than DNA concentration).
# [2] = Second order reaction rate between a biothiol and the redox-regulating protein; assay type: biochemical
# [3] = tested on: biotin-binding dsDNA [SEQ ID NOs: 1 and 2]; assay: Biolayer interferometry of DNA and OhrR binding on a photosensor
# Procedure: A binding degree between DNA and a protein on the surface of a photosensor (optical fiber) was measured using an instrument for biolayer interferometry (Blitz, Fortebio, USA).
# Binding buffer, washing buffer: TBS (Tris 20 mM, NaCl 150 mM)
# DNA binding time, OhrR binding time: 2 min
# DNA concentration: 2.5 μM
# OhrR concentration: 50 μM
# CHP concentration: 100 μM
# First, biotin-binding dsDNA [SEQ ID NOs: 1 and 2] was dissolved in a TBS buffer at the above-mentioned concentration, bound to a streptavidin-coated photosensor (optical fiber) by flowing the resulting mixture for 120 seconds, and washed with a buffer, and then the OhrR protein was associated with dsDNA binding to the photosensor by additionally flowing the protein dissolved in a TBS buffer at the above-described concentration for 120 seconds (association). After the association was completed, by additionally flowing only a buffer for 120 seconds, the dissociation process of the DNA-OhrR complex was confirmed (dissociation).
# In biolayer interferometry, when a biomaterial (DNA or OhrR) is bound to the surface of a photosensor, a change in the surface refractive index of the photosensor is necessarily accompanied (the refractive index has a positive correlation with the concentration of a biomaterial), and the principle of converting the change in refractive index to a thickness is applied. […]
# DNA = DNA binding strength of OhrR
molecule,measurement,setting,value
B1,OhrR concentration from which the fluorescent band of dsDNA shifted upward,[1],about 1.6 μM
same,second order reaction rate between a biothiol and the redox-regulating protein,[2],about 10^3 M^−1s^−1
same,binding thickness (dissociation equilibrium of OhrR minus dsDNA binding equilibrium),"[3]; OhrR 50 μM, DNA 2.5 μM, without CHP and biothiol",about 4.3 nm
same,binding thickness,[3]; in the presence of both CHP and a biothiol,about 1 nm
same,Kd,DNA,≤ 1 nM

# Reference: patent publication US20190331690A1, “BIOTHIOL DETECTION COMPOSITION COMPRISING REDOX REGULATION PROTENIN” (INDUSTRY-UNIVERSITY COOPERATION FOUNDATION HANYANG …, priority 2016, published 2019)
